Measurements: the nanobody polyreactivity screen of Harvey et al. (2022)

Experiment: yeast display, Sf9 membrane polyspecificity reagent, FACS + sequencing; frameworks hold sequencing errors
Outline: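 Using colony PCR, genes from sorted yeast display clones were amplified, then sequenced on MiSeq at 2 × 250 and filtered by CDR length. The clones had been stained with 10% biotinylated, detergent-solubilized Sf9 membrane reagent for 1 hour at 4 °C and sorted by FACS into low and high (top ~1%) gates on anti-HA and streptavidin fluorescence. Polyreactivity labels come from the gate of origin.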

Q: For “QVQLVESGGGLVHAGGSLRLSCAASGNIFRYNAMGWYRQAPGKERELVAAISSVGTTNYADSVKGRFTISRDNAKNTVYLQMNSLKPEDSAVYYCAAVAFQGGYWYDYWGQGTQVTVSS”, which “polyreactivity (PSR sort gate)” value is on record?
A: low polyreactivity

Q: With “QVQLVESGGGLVHAGGSLRLSCAASGNIITYNAMALYRQAPGKERELVAAITRGGNTNYADSVKGRFTISRDNAKNTVYLQMNSLKPEDTAVYFCAADRYVQLLGYFFEFDYWGQGSQVTVSS” as the sequence, how does the “polyreactivity (PSR sort gate)” value read?
A: low polyreactivity

Q: Which “polyreactivity (PSR sort gate)” value does the source give for “QVQLVESGGGLVHAGGSLRLSCAASGRICGPYVMGWYRQAPGKERELVASITSSGGSPYYADSVKGRFTISRDNAKNTVYLQMNSLKPEDTAVYYWGQGTQVSVSS” here?
A: low polyreactivity

Q: With “QVQLVESGGGLVHAGGSLRLSCAASGRIFFRYAMGWYRQSPGKEREFVATITWSGGRTHYADSVKGRFTISRDNAKNTVYLQMNSLKPEDTAVYYCAASYHRYAFDYWGQGTQVTVSS” as the sequence, how does the “polyreactivity (PSR sort gate)” value read?
A: high polyreactivity

Q: Which “polyreactivity (PSR sort gate)” value does the source give for “QVQLVESGGGLVHAGGSLRLSCAASGRIFQYYAMGWYRQAPGKERELVAAIDQSGDTTYYADSVKGRFTISRDNAKNTVYLQMNSLKPEDTAVFYCAAGYDWAYHWVPQWMYFWGQGTQVTVSS” here?
A: low polyreactivity

Q: Which “polyreactivity (PSR sort gate)” value does the source give for “QVQLVESGGGLVHAGGSLRLSCAASGRIFTPYAMGWYRQAPGKERELVAAISGRGGSTYYADSVKGRFTISRDNAKNTVYLQMNSLKPEDTAVYYCAATYFYVYDYWLDYWGQGTQVTVSS” here?
A: high polyreactivity

Q: With “QVQLVESGGGLVHAGGSLRLSCAASGRIFYPYTMGWYRQAPGKERELVAAISIRGTSTYYADSVKGRFTISRDNAKNTVYLQMNSLKPEDTAVYYCAALYVGYDYWGQGTQVTVSS” as the sequence, how does the “polyreactivity (PSR sort gate)” value read?
A: high polyreactivity

Q: With “QVQLVESGGGLVHAGGSLRLSCAASGRIYRGNAMGWYRQAPGKERELVARITGNDGDTYYADSVKGRFTISRDNEKNTVYLQMKSLKPEDTAVYYCATDTSSYRSRYYYWGQGTQVTVSS” as the sequence, how does the “polyreactivity (PSR sort gate)” value read?
A: low polyreactivity

Q: With “QVQLVESGGGLVHAGGSLRLSCAASGRTFNGNAMGWYRQAPGKERELVAVITGSGGSTYYADSVKGRYTISRDNAKNTVYLQMNSLKPEDTAVYYCNKKVQRRSWYDYWGQGTQVTVSS” as the sequence, how does the “polyreactivity (PSR sort gate)” value read?
A: low polyreactivity

Q: For “QVQLVESGGGLVHAGGSLRLSCAASGSIFCTNVMGWYRQAPGKERELVAAISYSDGSTYYADSVKGRFTISRDNAKNTVYLQMNILKPEDSAVYYCADYLYYYWGGYDYWGQGTQVTVSS”, which “polyreactivity (PSR sort gate)” value is on record?
A: low polyreactivity

Q: With “QVQLVESGGGLVHAGGSLRLSCAASGSIFDFNAMGWYRQVPGKERELVAAITSGGSTNYADSVKGRFTISRDNAKNTVYLQMNSLKPEDTAVYYCAARPARGASQGGYVRPWWYDSWGQGTQVTVSS” as the sequence, how does the “polyreactivity (PSR sort gate)” value read?
A: low polyreactivity

Q: Which “polyreactivity (PSR sort gate)” value does the source give for “QVQLVESGGGLVHAGGSLRLSCAASGSIFQYNAMGWYRQAPGKERELVATISSGGSTNYADSVKGRFTISRDNAKNTVYLQMNSLKPEDTAVYYCAAVVIVFYYAPNYWGDIEYGYWGQGTQVTVSS” here?
A: low polyreactivity

Q: For “QVQLVESGGGLVHAGGSLRLSCAASGSIFSIYAMGWYRQAPGTERELVAAITKSGGSTYYADSVKGRFTISRDNAKNTVYLQMNSLKPEDTAVYYCAAEPQHYVGYYYWGQGNQVTVSS”, which “polyreactivity (PSR sort gate)” value is on record?
A: high polyreactivity

Q: For “QVQLVESGGGLVHAGGSLRLSCAASGSILKYYAMGWYRQAPGKERELVAAITSRGGSTYYADSVKGRFTISRDNAKNTVYLQMNSLKPEDTAVYYCNRVYLGYFRYDYWGQGTQVTVSS”, which “polyreactivity (PSR sort gate)” value is on record?
A: high polyreactivity

Q: For “QVQLVESGGGLVHAGGSLRLSCAASGSTFGDNAMRLYRQAPGKERELVAVISTAGSTYYADSVKGRFTISRDNAKNTVYLQMNSLKPEDTAVYYCAAAYYVWLYGFWYRRYDYWGQGTQVTVSS”, which “polyreactivity (PSR sort gate)” value is on record?
A: low polyreactivity

Q: With “QVQLVESGGGLVHAGGSLRLSCAASGSTFRSYAMGWYRQAPGKERELVARISYRTGSTYYADSVKGRFTISRDYAKNTVYLQMNSLKPEDTAVYYCATRGSYVGGLYDYWGQGTQVTVSS” as the sequence, how does the “polyreactivity (PSR sort gate)” value read?
A: high polyreactivity
